This experiment deals with preformed MYC/MAX heterodimer (human | , UniProt P61244 1-160). The experiment is described as follows: FP.

Positions of bridges follow the written chain, without caps; N, C: chain ends. Chains are numbered I, II in the order given. No end group written: not given here.

Broadly, the Kd is the equilibrium constant for the complex coming apart. Lower therefore signals higher affinity.

preformed MYC/MAX heterodimer, sequence (chain, as listed by the source, chain 1 of 2): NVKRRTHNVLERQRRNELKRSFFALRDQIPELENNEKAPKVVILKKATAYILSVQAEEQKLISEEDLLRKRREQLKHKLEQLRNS
preformed MYC/MAX heterodimer, sequence (P61244 2-160, chain 2 of 2): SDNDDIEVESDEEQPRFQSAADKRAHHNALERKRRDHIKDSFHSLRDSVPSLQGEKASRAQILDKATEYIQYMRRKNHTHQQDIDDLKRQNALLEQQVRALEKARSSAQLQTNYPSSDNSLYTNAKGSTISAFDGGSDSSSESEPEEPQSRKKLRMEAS

B1: fluorescein-labeled CHD^Max-1 (cross-linked helix dimer derived from MAX) (designed binder)
chain 1: LREKIATLQWCIEELRK
chain 2: LRRKNETHQWEIEELC
modifications: bridge I:11-II:16; not fully specified (bridges); also: fluorescein label, chain and position not given here
B1 came in with a Kd of 460 nM.

The values are drawn from PMC12022973 (2025).
